Details: Homo sapiens, pH 7.4, Thermal, Phosphate 10 mM

Sequence of Hemoglobin subunit alpha wild type, P69905 (P69905 whole entry): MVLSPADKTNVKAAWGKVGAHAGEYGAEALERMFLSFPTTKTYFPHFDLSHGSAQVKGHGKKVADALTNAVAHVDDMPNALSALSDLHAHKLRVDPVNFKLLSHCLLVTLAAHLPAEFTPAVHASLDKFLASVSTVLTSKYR

Substance: Hemoglobin subunit alpha wild type, P69905
- Tm (Absorbance): 71 °C
- Tm (CD): 73 °C
- Tm (DSC): 75 °C
- Tm (Optical Density): 58.7 °C
